The chains are these.
B1: CPEB3 Ribozyme (parent)
chain: UAACAGGGGGCCACAGCAGAAGCGUUCACGUCGCAGCCCCUGUCAGAUUCUGGUGAAUCUGCGAAUUCUGCUGUAUAUCUC

The variants in this series derive from B1. The series can be described thus: self-cleavage, relative activity (ratio to wild type); higher = more cleavage; in vitro, sequencing. In short, it runs like this:
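Relative activity was defined as the cleaved/total read fraction for a variant divided by the same fraction for the unmutated ribozyme. CPEB3 self-cleaving ribozyme libraries were made by rounds of error-prone PCR, barcoded, and transcribed in vitro with T7 RNA polymerase for 5 hours at 37°C, and cleavage ran through transcription plus a 15 min DNase I step before EDTA. Illumina sequencing of template-switched reverse transcripts gave the reads, and DNA sequencing mapped the barcodes. Averages come from three batches, using variants with at least 5 reads.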
Turning to UAACAGGGGGCCACAGCAGAAGCGUUCACGUCGCAGCCCCUGUCAGAUUCUGGGGAAUCUGCGAAUUCUGCAGUAUAUCUC [U54G U72A], the self-cleavage is 0.41. UACCAGGGGGCCACAGCAGAAGCGUUCACGUCGCAGCCCCUGUCAGAUUCUGGUGGAUCUGCGAAUUCUGCUGUAUAUCUC [A3C A56G]: the self-cleavage came to 1.12. With UAACAGGGGGCCACAGCAGAAGCGUUCACGUCGCGGCCCCUGUCAGAUUCUGGUGAGUCUGCGAAUUCUGCUGUAUAUCUC [A35G A57G], the self-cleavage is 1.27. The result for UAACAGGGGGCCACAGCAGAAGCGUUCACGACGCAGCCCCUGUCAGAUUCUGGUGUAUCUGCGAAUUCUGCUGUAUAUCUC [U31A A56U] reads 0.39. Take UGACAGGGGGCCACAGCAGAAGCGUUCACGUCGCAGCCCCUGUCAGAUUCUGGUGAAUCUGCGAAUUCUGCUGUAAAUCUC [A2G U76A]: the self-cleavage was determined as 0.73. For the variant UAACAGGGGGCCACAGCAGAAGCGUUCACGUCGCAGCACCUGUCAGAUUCUGGUGAGUCUGCGAAUUCUGCUGUAUAUCUC [C38A A57G], the self-cleavage stood at 0.19.

With UAACAGGGGGCCACAGCAGAAGCGUUCACGUAGCAGCCCCUGUCAGAUUCGGGUGAAUCUGCGAAUUCUGCUGUAUAUCUC [C32A U51G], the self-cleavage turned out to be 0.31. With UAACAGGGGGUCACAGCAGAAGCGUUCACGUCUCAGCCCCUGUCAGAUUCUGGUGAAUCUGCGAAUUCUGCUGUAUAUCUC [C11U G33U], the self-cleavage was 0.19. On to UAACUGGGGGCCACAGCAGAAGCGUUCACGUCGCAGCCCCUGUCAGAUUCUGGUGAAUCUGCGAUUUCUGCUGUAUAUCUC [A5U A65U], for which the self-cleavage is 0.28. The result for UAACAGGGGGCCACAGCAGAAGCGUUCACGCCGCAGCCCCUGUCAGAUUUUGGUGAAUCUGCGAAUUCUGCUGUAUAUCUC [U31C C50U] reads 0.82. UAACAGGGGGCCACAGCAGAAGCGUUCACGUCGCAGCCCCUGUCGGAUUCUGGUGAAUCUGCGAAUUCUGCUGGAUAUCUC [A45G U74G]: the self-cleavage was found to be 1.21. For UAACAGGGGGCCACAGCAGAAGCGUUCACGUCGCAGCCCCUGUCAGAUUCUGGUGGCUCUGCGAAUUCUGCUGUAUAUCUC [A56G A57C] the value was 0.19. For the variant UAACAGGGGGCCACAGCAGAAGCGUUCACGUGGCAGCCCCUGUCAGAUUCUGGUGAAUCUGCAAAUUCUGCUGUAUAUCUC [C32G G63A], the self-cleavage was 0.14. Consider UAACAGGGGGCCACAGCAGAAGCGUUCACGUCGCAGCCCCUGUCAGAUUCUGGCGAAUCUGCGAAUUCUGCUGUAUAACUC [U54C U78A], for which the self-cleavage amounted to 1.03.

For UAACAGGGGGCCACAGCAGAAGCGUUCACGUCGCAGCCCCUGUCAGAUUCUGGUGAGUCUGCGAAUUCUGCUGUAUAGCUC [A57G U78G], the self-cleavage stood at 1.12.

In the case of UAACAGGGGGCCACAGCAGAAGCGUUCACGUCGCAGCCCCUGUCAGGUUCUGGUGAAGCUGCGAAUUCUGCUGUAUAUCUC [A47G U58G], the self-cleavage was 0.29. For the variant UAACAGGGGGCCACAGCAGAAGCGUUCACGUCGCAGCCCCUGUCAGAUUCUGGUGAAUCUGGGAAUUCUGCCGUAUAUCUC [C62G U72C], the self-cleavage came out at 0.26. Regarding UAACAGGGGGCCACAGCAGAAGCGUUCACGUCGCAGCCUCUGUCAGAUUCUGGUGAAUCUGCGAAUUCUGCUGUAUGUCUC [C39U A77G], the self-cleavage was found to be 0.83. For UAACAGGGGGCCACAGCAGAAGCGUUCACGUCGCAGCCCUUGUCAGAUUCUGAUGAAUCUGCGAAUUCUGCUGUAUAUCUC [C40U G53A] the value was 0.84; for UAACAGGGGGCCACAGCAGAAGCGUACACGUCGCAGCCCCUGUCAGAUUCUGGUGAAUCUGCGAAUUCAGCUGUAUAUCUC [U26A U69A], 0.46; for UAACAGGGGGCCACAGCAGAAGCGUUCACGGCGCUGCCCCUGUCAGAUUCUGGUGAAUCUGCGAAUUCUGCUGUAUAUCUC [U31G A35U], 0.36. On to UAACAGGGGGCCACAGCAGAAGCGUCCACGUCGCAGCCCCUGUCAGCUUCUGGUGAAUCUGCGAAUUCUGCUGUAUAUCUC [U26C A47C], for which the self-cleavage stood at 0.08. The result for UAACAGGGGGCCACAGCAGAAGCGUUCACGUCGCAGCCCCUGUCAGAUUCUGGUGAAUCUCCGAAUUCUGCUGCAUAUCUC [G61C U74C] reads 0.23; that for UAACUGGGGGCCACAGCAGAAGCGUUCACGUUGCAGCCCCUGUCAGAUUCUGGUGAAUCUGCGAAUUCUGCUGUAUAUCUC [A5U C32U], 0.31; that for UAACAGGGGGCCACAGCAGAAGCGUUCACGUCGCAGCCCCUGUCAAAUUCUGAUGAAUCUGCGAAUUCUGCUGUAUAUCUC [G46A G53A], 0.45.

As to UAACAGGGGACCACAGCAGAAGCGUUCACGUCGCAGCCCCUGUCAGAUUCUGGUGAAUCUGCGAAUUCUGCUGUACAUCUC [G10A U76C], the self-cleavage amounted to 0.33. Take UAACAGGGGGCCACAGCAGAAGCGUUCUCGUCGCAGCCCCUGUCAGGUUCUGGUGAAUCUGCGAAUUCUGCUGUAUAUCUC [A28U A47G]: the self-cleavage was 0.89. For UUACAGGGGGCCACAGCAGAAGCGUUCACGUCGCAGCCCCUGUCAGAUUCUGGAGAAUCUGCGAAUUCUGCUGUAUAUCUC [A2U U54A] the value was 1.15. UAACAGGGGGCCACAGCAGAAGCGUUCACGUAGCAGCCCCUGUCAGAUUCUUGUGAAUCUGCGAAUUCUGCUGUAUAUCUC [C32A G52U]: the self-cleavage worked out at 0.13. The result for UAACAGGGGGCCACAGCAGAAGCAUUCACGUCGCAGCCCCUGACAGAUUCUGGUGAAUCUGCGAAUUCUGCUGUAUAUCUC [G24A U43A] reads 0.17; that for UAACAGGGGGCCACAGCAGAAGCGUUCACGUCACAGCCCCUGUCAGAUUCUGGUGAACCUGCGAAUUCUGCUGUAUAUCUC [G33A U58C], 0.08. As to UAACAGGGGGCCAUAGCAGAAGCGUUCACGUCGCAGCCCCUGUCAGAUUCUGGUGAAUCUGCGAAUUCCGCUGUAUAUCUC [C14U U69C], the self-cleavage is 0.57. Regarding UAACAAGGGCCCACAGCAGAAGCGUUCACGUCGCAGCCCCUGUCAGAUUCUGGUGAAUCUGCGAAUUCUGCUGUAUAUCUC [G6A G10C], the self-cleavage was determined as 0.23.

For UAACAGGGGGCCACAGCAGUAGCGUUCACGUCGCAGCCCCUGUCAGAUUCUGGUGGAUCUGCGAAUUCUGCUGUAUAUCUC [A20U A56G], the self-cleavage turned out to be 0.25.
